The record followed here is article PMC3735183.

In this assay the target is human secretory immunoglobulin A (SIgA) (human) (UniProt P01833). Briefly: SPR. For orientation: Surface plasmon resonance follows binding to a sensor surface in real time, without labels.
UniProt P01833, sequence (P01833 whole entry, looked up): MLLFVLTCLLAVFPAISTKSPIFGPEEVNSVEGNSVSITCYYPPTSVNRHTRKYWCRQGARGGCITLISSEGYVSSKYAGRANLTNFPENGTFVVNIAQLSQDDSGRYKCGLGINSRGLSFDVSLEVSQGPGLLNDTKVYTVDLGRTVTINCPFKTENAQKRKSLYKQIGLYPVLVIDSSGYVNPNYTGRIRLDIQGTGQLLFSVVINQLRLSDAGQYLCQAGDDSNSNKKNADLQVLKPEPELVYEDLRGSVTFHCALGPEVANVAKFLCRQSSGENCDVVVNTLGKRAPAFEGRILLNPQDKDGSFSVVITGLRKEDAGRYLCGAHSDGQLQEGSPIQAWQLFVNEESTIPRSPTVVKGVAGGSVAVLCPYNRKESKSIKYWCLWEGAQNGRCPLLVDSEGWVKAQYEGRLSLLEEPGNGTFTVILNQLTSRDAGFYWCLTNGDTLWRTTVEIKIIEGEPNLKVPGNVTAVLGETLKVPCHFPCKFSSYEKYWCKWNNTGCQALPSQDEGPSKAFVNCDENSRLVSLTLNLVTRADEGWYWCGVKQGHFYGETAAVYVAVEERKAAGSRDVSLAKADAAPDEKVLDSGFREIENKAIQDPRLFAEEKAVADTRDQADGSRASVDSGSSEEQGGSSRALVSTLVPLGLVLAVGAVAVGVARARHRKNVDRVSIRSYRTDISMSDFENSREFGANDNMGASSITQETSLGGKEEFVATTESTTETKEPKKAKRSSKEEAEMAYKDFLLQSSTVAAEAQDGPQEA

As to “EsiB (E. coli secretory immunoglobulin A-binding protein), recombinant, without signal peptide (natural protein)”, the Kd (usually a measure of binding affinity in units of concentration) stood at 30.2 µM, the koff (usually the first-order rate constant of dissociation) worked out at 0.042 s⁻¹ and the on-rate constant (kon) (usually the rate constant with which the complex forms) is 1390 M⁻¹ s⁻¹.
